Measurements taken from the supplement of paper PMC10567573.

B1: MNAT1 (parent)
chain: LAPIHKLEEALYEYQPLQIETYGP
B2: ZNF24 (parent)
chain: THTKEQILELVVLEQFVAILPKEL

Variants of: B1
Assay: protein stability index of a GFP-peptide fusion (GPS, HEK-293T) (PSI 1-6); higher = more stable
Details: c terminus: a fixed tail appended
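Also: lentivirally expressed fusions sorted by FACS into six bins by GFP to DsRed ratio, PSI derived from sequencing read proportions per bin multiplied by bin number.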

Protein stability index: each site, then its substitutions
E13: H 2.7 | D 2.9 | G 2.37 | K 1.83 | C 1.64 | M 2.49 | A 1.53 | W 2.08 | F 2.29 | S 1.58 | R 1.8 | L 2.22
A2: P 2.3 | S 2.29 | T 2.63 | L 2.93 | N 2.23 | I 1.91 | R 1.62 | Q 2.07 | E 2.47 | K 1.92 | F 3.4 | W 2.44 | V 2.54 | C 1.68 | D 1.77 | H 2.21
L11: Q 3.23 | F 2.07 | V 2.9 | Y 2.42 | H 2.54 | N 3.41 | A 3.55 | R 2.77
P16: I 2.79 | H 2.43 | Y 1.52 | G 2.35 | T 1.96 | D 2.86 | R 2.02 | N 2.94 | K 1.92 | S 2.57 | C 2.06
I4: S 2.3 | W 1.59 | P 2.55 | V 2.13 | L 2.04 | E 2.78 | R 2.75 | K 2.17 | A 2.95 | Y 1.66 | N 2.35 | H 2.63
Y22: H 1.91 | N 2.74 | M 2.01 | E 3.19 | W 2.1 | A 2.18 | T 2.64 | R 1.73
H5: L 1.88 | S 2.11 | F 2.03 | V 1.49 | K 2.62 | Y 1.61 | T 1.59 | I 1.71 | M 1.71
G23: H 2.67 | L 2.56 | W 1.14 | T 1.3 | Q 2.02 | K 2.86 | Y 1.87 | C 1.44 | S 2.1 | D 1.3 | A 2.16
K6: Q 2.24 | F 2.75 | G 1.9 | N 2.27 | L 2.29 | Y 2.1 | C 1.64 | T 1.84 | I 1.4 | D 1.94 | H 1.97 | V 2.14 | M 1.44 | R 1.8
Q18: I 1.94 | Y 1.37 | V 2.25 | P 2.76 | D 3.99 | A 1.84 | H 1.91 | W 1.96
L1: I 1.94 | R 2.5 | W 2.56 | V 2.31 | K 2.33 | Q 2.47 | M 1.87 | A 2.28 | E 2.52 | D 2.31 | S 2.62 | Y 2.12 | N 2.79
E8: I 3.59 | A 1.55 | Q 2.05 | Y 2.08 | P 2.19 | S 1.75 | V 1.53 | C 3.13 | H 1.67 | M 3.31 | T 2 | D 2.52 | N 1.8 | R 2.26
I19: W 2.32 | F 1.85 | L 2.89 | Q 3.62 | T 2.61 | H 2.85 | E 3.3 | S 2.73 | Y 1.92 | D 4.07
A10: R 2.05 | D 2.91 | L 1.69 | G 2.88 | K 2.52 | P 2.73 | F 2.45 | Q 2.42 | C 2.09 | N 2.69 | W 1.8 | H 2.28
L7: N 2.72 | A 3.44 | H 3.55 | F 2.37 | S 3.52 | Y 2.85 | W 3.02 | I 2.15 | G 2.81 | R 3.06
T21: W 3.09 | A 2.6 | D 2.31 | M 3.53 | P 2.46 | S 2.23 | K 2.5 | Q 1.57 | G 1.98 | C 3.14
P3: N 1.32 | D 1.46 | G 2.02 | E 1.97 | S 2.12 | T 2.32 | F 2.67 | M 2.48 | A 2.23 | L 2.95 | R 2.1
L17: V 3.02 | D 3.96 | N 3.01 | Y 2.59 | E 3.63 | K 3.19 | Q 2.19 | T 2.47 | I 2.1
E9: Y 1.32 | G 2.62 | L 3.09 | I 2.42 | A 2.48 | N 1.78 | R 1.91 | K 2.26 | M 2.34
Y14: V 2.75 | N 2.99 | C 2.54 | L 2.1 | G 3.45 | D 4.2 | H 3.32 | W 2.28 | R 3.59 | I 2.52 | E 3.43 | M 2.42 | A 3.19 | S 3.36
Q15: R 2.03 | V 1.44 | C 1.05 | H 2.08 | S 2.07 | M 1.94 | E 2.36 | I 1.66
Y12: G 2.64 | Q 1.88 | I 2.64 | N 3.07 | D 3.07 | E 2.65 | R 2.19 | A 1.27 | V 2.13 | H 1.54
P24: W 1.99 | G 1.82 | T 1.87 | C 2.67 | M 1.25 | L 3.08 | S 2.35
E20: M 1.47 | Q 2.19 | A 1.32 | W 2.88 | D 1.95 | T 1.28 | R 1.79 | P 2.59 | S 1.71 | I 2.71 | Y 2.74

Variants of: B2
Assay: as above
Details: c terminus: a fixed tail appended

Protein stability index: each site, then its substitutions
K4: I 3.38 | T 1.83 | L 4.05 | A 2.93 | C 3.41 | W 2.88 | Q 2.59 | R 1.59 | F 4.57 | S 2.19 | Y 2.51 | P 2.23 | H 2 | M 2.91 | D 2.45 | N 2.23 | G 3.12 | E 1.58
E5: F 2.12 | H 2.42 | G 2.7 | C 2.31 | A 2
T3: P 2.96 | D 2.43 | V 2 | L 3.11 | K 2.96 | E 3.23 | Y 3.59 | M 3.02 | G 4.09 | I 2.65 | Q 2.81 | N 3.1 | S 3.88 | A 3.86 | C 1.53 | F 2.76 | H 2.23 | W 3.42 | R 2.26
H2: P 1.76 | N 2.59 | T 2.23 | M 3.24 | V 2.41 | A 3.12 | K 3.34 | L 4.38 | D 4.11 | F 2.4 | Q 3.14 | C 2.25 | E 2.74 | I 3.4 | G 2.96 | W 3.14 | Y 2.19
T1: V 3.19 | R 1.94 | F 3.59 | M 1.92 | N 2.86 | G 2.25 | K 2.39 | W 2.72 | Q 1.32 | L 1.56 | C 3.51 | I 2.73 | D 2.63 | Y 2.79 | A 3.53 | P 3.09 | E 2.81 | S 3.3
